The source of these data is patent publication US20120121506A1 (PHILOGEN S P A, published 2012).

The target of this assay is T1, Extra Domain-A (ED-A) isoform of fibronectin in bone marrow biopsies of AML patients (human, UniProt P02751 1722-1811, limits assumed).
T1 construct: The antigen was not used as an isolated protein; It is the native protein in patient tissue sections; also called A-FN; EDA domain of fibronectin
Nature of the assay: immunohistochemistry, bone marrow biopsies of two patients with extramedullary AML, biotinylated SIP 2 ug/ml. The protocol:
For immunohistochemistry, biotinylated antibodies were used in small immunoprotein format (SIP) under identical conditions (2 μg/ml). Aliquots were prepared from a single batch of antibodies, frozen and used only once to ensure reproducibility of immunohistochemical stainings. Frozen tissue samples were stored at −80° C. Sections of 10 μm thickness were fixed in chilled acetone, rehydrated in TBS buffer (50 mM Tris, 100 mM NaCl, 0.001% Aprotinin, pH 7.4) and blocked with 20% fetal calf serum in TBS. The antibodies were added onto the sections in a final concentration of 2 μg/mL in 3% bovine serum albumin (BSA)/TBS solution and incubated for one hour. After washing in TBS, bound antibodies were detected with streptavidin-biotinylated alkaline phosphatase complex (Biospa, Milan, Italy) in TBS 3% BSA+2 mM MgCl₂. The Fast Red substrate (Sigma) was used for detection of phosphatase activity. Sections were counterstained with Gill's hematoxylin No. 2 (Sigma) and mounted with Glycergel mounting medium (Dako, Glostrup, Denmark).

T1 sequence (P02751 1722-1811 limits assumed): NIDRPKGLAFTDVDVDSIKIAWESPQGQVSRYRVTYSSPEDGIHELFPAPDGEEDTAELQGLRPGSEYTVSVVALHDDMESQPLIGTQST

B1: F8-SIP (V5L/K18R) (antibody)
chain: EVQLLESGGGLVQPGGSLRLSCAASGFTFSLFTMSWVRQAPGKGLEWVSAISGSGGSTYYADSVKGRFTISRDNSKNTLYLQMNSLRAEDTAVYYCAKSTHLYLFDYWGQGTLVTVSSGGGGSGGGSGGGGGEIVLTQSPGTLSLSPGERATLSCRASQSVSMPFLAWYQQKPGQAPRLLIYGASSRATGIPDRFSGSGSGTDFTLTISRLEPEDFAVYYCQQMRGRPPTFGQGTKVEIKSGGSGGPRAAPEVYAFATPEWPGSRDKRTLACLIQNFMPEDISVQWLHNEVQLPDARHSTTQPRKTKGSGFFVFSRLEVTRAEWEQKDEFICRAVHEAASPSQTVQRAVSVNPESSRRGGC
modifications: biotinylated (sites not given)
notes: Human monoclonal mini-immunoglobulin (small immunoprotein, SIP); It was used biotinylated at 2 ug/ml on tissue sections; also called F8 (V5L/K18R)
With B1, the binding result is given as “binds”.
